# In US20140348865A1, “[…] ON AN HIV-1 V1V2 SITE-OF-VULNERABILITY” (The United States of America, as represented by the …, priority 2011, published 2014):
# What was measured:
# [1] = target: 89.6.DG
# [2] = target: AC10.29
# [3] = target: ADA.DG
# [4] = target: BL01.DG
# [5] = target: BR07.DG
# [6] = target: BX08_16
# [7] = target: BaL.26
# [8] = target: Bal.01
# [9] = target: CAAN.A2
# [10] = target: CNE10
# [11] = target: CNE12
# [12] = target: CNE14
# [13] = target: DJ263.8
# [14] = target: Env of HIV-1 strain 7165.18 (pseudovirus) (HIV-1)
# [15] = target: Env of HIV-1 strain BG 1168 (pseudovirus) (HIV-1)
# [16] = target: Env of HIV-1 strain CNE4 (pseudovirus) (HIV-1)
# [17] = target: Env of HIV-1 strain JRFL (pseudovirus) (HIV-1)
# [18] = target: Env of HIV-1 strain QH0515 (pseudovirus) (HIV-1)
# [19] = target: Env of HIV-1 strain RHPA (pseudovirus) (HIV-1)
# [20] = target: Env of HIV-1 strain T251-18 (pseudovirus) (HIV-1)
# [21] = target: HO86.8
# [22] = target: HT593.1
# [23] = target: HXB2.DG
# [24] = target: JR-CSF
# [25] = target: MN.3
# [26] = target: PVO.04
# [27] = target: QH0692.42 (pseudovirus)
# [28] = target: REJO.67
# [29] = target: SC422.8
# [30] = target: SF162.LS
# [31] = target: SS1196.01
# [32] = target: T250-4
# [33] = target: T253-11
# [34] = target: T255-34
# [35] = target: T257-31
# [36] = target: T266-60
# [37] = target: T278-50
# [38] = target: T280-5
# [39] = target: T33-7
# [40] = target: THRO.18
# [41] = target: TRJO.58
# [42] = target: TRO.11 (pseudovirus)
# [43] = target: WITO.33
# [44] = target: YU2.DG
# [45] = target: 0077_V1.C16
# [46] = target: 6785.V5.C14
# [47] = target: 96ZM651.02
# [48] = target: CAP210.E8
# [49] = target: CAP45.G3
# [50] = target: CH038.12
# [51] = target: CH117.4
# [52] = target: CNE31
# [53] = target: CNE53
# [54] = target: CNE57
# [55] = target: CNE7
# [56] = target: DU123.06
# [57] = target: Env of HIV-1 strain 3873 (pseudovirus) (HIV-1)
# [58] = target: Env of HIV-1 strain 6471 (pseudovirus) (HIV-1)
# [59] = target: TV1.29
# [60] = target: TZBD.02
# [61] = target: ZA012.29
# [62] = target: ZM176.66
# [63] = target: monomeric gp120; assay: ELISA or SPR against neutralization
# [64] = target: 1FD6 CAP45 scaffold N143D; assay: ELISA, supernatant on His grab plates
# [65] = target: 1FD6 CAP45 scaffold N147D; assay: ELISA, supernatant on His grab plates
# [66] = target: 1FD6 CAP45 scaffold N156D; assay: ELISA, supernatant on His grab plates
# [67] = target: 1FD6 CAP45 scaffold N160Q; assay: ELISA, supernatant on His grab plates
# [68] = target: 1FD6 CAP45 scaffold N192D; assay: ELISA, supernatant on His grab plates
# [69] = target: 1FD6-CAP45 V1V2 scaffold; assay: ELISA, supernatant on His grab plates
substance,measurement,setting,value
monoclonal antibody PG9,neutralization IC50,[1],> 50 µg/mL
same,neutralization IC50,[2],0.078 µg/mL
same,neutralization IC50,[3],0.342 µg/mL
same,neutralization IC50,[4],> 50 µg/mL
same,neutralization IC50,[5],> 50 µg/mL
same,neutralization IC50,[6],0.024 µg/mL
same,neutralization IC50,[7],0.034 µg/mL
same,neutralization IC50,[8],0.052 µg/mL
same,neutralization IC50,[9],13 µg/mL
same,neutralization IC50,[10],0.243 µg/mL
same,neutralization IC50,[11],> 50 µg/mL
same,neutralization IC50,[12],> 50 µg/mL
same,neutralization IC50,[13],0.1 µg/mL
same,neutralization IC50,[14],> 50 µg/mL
same,neutralization IC50,[15],> 50 µg/mL
same,neutralization IC50,[16],> 50 µg/mL
same,neutralization IC50,[17],> 50 µg/mL
same,neutralization IC50,[18],> 50 µg/mL
same,neutralization IC50,[19],> 50 µg/mL
same,neutralization IC50,[20],> 50 µg/mL
same,neutralization IC50,[21],0.014 µg/mL
same,neutralization IC50,[22],0.271 µg/mL
same,neutralization IC50,[23],0.553 µg/mL
same,neutralization IC50,[24],0.003 µg/mL
same,neutralization IC50,[25],> 50 µg/mL
same,neutralization IC50,[26],6.24 µg/mL
same,neutralization IC50,[27],> 50 µg/mL
same,neutralization IC50,[28],0.005 µg/mL
same,neutralization IC50,[29],0.535 µg/mL
same,neutralization IC50,[30],> 50 µg/mL
same,neutralization IC50,[31],0.293 µg/mL
same,neutralization IC50,[32],< 0.0006 µg/mL
same,neutralization IC50,[33],0.127 µg/mL
same,neutralization IC50,[34],0.015 µg/mL
same,neutralization IC50,[35],0.02 µg/mL
same,neutralization IC50,[36],24 µg/mL
same,neutralization IC50,[37],0.913 µg/mL
same,neutralization IC50,[38],0.379 µg/mL
same,neutralization IC50,[39],< 0.023 µg/mL
same,neutralization IC50,[40],15 µg/mL
same,neutralization IC50,[41],0.246 µg/mL
same,neutralization IC50,[42],41.5 µg/mL
same,neutralization IC50,[43],< 0.023 µg/mL
same,neutralization IC50,[44],3.69 µg/mL
same,neutralization IC50,[45],0.091 µg/mL
same,neutralization IC50,[46],< 0.023 µg/mL
same,neutralization IC50,[47],> 50 µg/mL
same,neutralization IC50,[48],0.087 µg/mL
same,neutralization IC50,[49],< 0.023 µg/mL
same,neutralization IC50,[50],0.5 µg/mL
same,neutralization IC50,[51],0.008 µg/mL
same,neutralization IC50,[52],13.5 µg/mL
same,neutralization IC50,[53],0.147 µg/mL
same,neutralization IC50,[54],> 50 µg/mL
same,neutralization IC50,[55],1.66 µg/mL
same,neutralization IC50,[56],0.091 µg/mL
same,neutralization IC50,[57],> 50 µg/mL
same,neutralization IC50,[58],> 50 µg/mL
same,neutralization IC50,[59],0.008 µg/mL
same,neutralization IC50,[60],0.266 µg/mL
same,neutralization IC50,[61],27 µg/mL
same,neutralization IC50,[62],0.007 µg/mL
same,fold weaker affinity for monomeric gp120 than for the viral spike,[63],> 10 fold
same,EC50,[64],0.1 µg/mL
same,EC50,[65],0.1 µg/mL
same,EC50,[66],4.9 µg/mL
same,EC50,[67],> 50 µg/mL
same,EC50,[68],0.2 µg/mL
same,EC50,[69],0.2 µg/mL
